From US7244606B2, “Modified BACE” (Elan Pharmaceuticals, Inc., priority 2002, dated 2007)
Several values for one entry are separate records, joined by “and”; a condition that tells them apart may be missing. Equal values may be shown once.

B1: β-secretase with the pro-segment intact: β-secretase with the pro-segment intact, from Shi et al., 2001 (protein, UniProt P56817 22-501, looked up)
pro-form: TQHGIRLPLRSGLGGAPLGLRLPRETDEEPEEPGRRGSFVEMVDNLRGKSGQGYYVEMTVGSPPQTLNILVDTGSSNFAVGAAPHPFLHRYYQRQLSSTYRDLRKGVYVPYTQGKWEGELGTDLVSIPHGPNVTVRANIAAITESDKFFINGSNWEGILGLAYAEIARPDDSLEPFFDSLVKQTHVPNLFSLQLCGAGFPLNQSEVLASVGGSMIIGGIDHSLYTGSLWYTPIRREWYYEVIIVRVEINGQDLKMDCKEYNYDKSIVDSGTTNLRLPKKVFEAAVKSIKAASSTEKFPDGFWLGEQLVCWQAGTTPWNIFPVISLYLMGEVTNQSFRITILPQQYLRPVEDVATSQDDCYKFAISQSSTGTVMGAVIMEGFYVVFDRARKRIGFAVSACHVHDEFRTAAVEGPFVTLDMEDCGYNIPQTDESTLMTIAYVMAAICALFMLPLCLMVCQWRCLRCLRQQHDDFADDISLLK
modifications: pro-form
B2: E. Coli P33K-BACE: recombinant human BACE with proline to lysine mutation at position 33, terminated at S432, expressed in E. coli and refolded (protein, listed as Homo sapiens)
chain: TQHGIRLPLRSGLGGAPLGLRLPRETDEEPEEKGRRGSFVEMVDNLRGKSGQGYYVEMTVGSPPQTLNILVDTGSSNFAVGAAPHPFLHRYYQRQLSSTYRDLRKGVYVPYTQGKWEGELGTDLVSIPHGPNVTVRANIAAITESDKFFINGSNWEGILGLAYAEIARPDDSLEPFFDSLVKQTHVPNLFSLQLCGAGFPLNQSEVLASVGGSMIIGGIDHSLYTGSLWYTPIRREWYYEVIIVRVEINGQDLKMDCKEYNYDKSIVDSGTTNLRLPKKVFEAAVKSIKAASSTEKFPDGFWLGEQLVCWQAGTTPWNIFPVISLYLMGEVTNQSFRITILPQQYLRPVEDVATSQDDCYKFAISQSSTGTVMGAVIMEGFYVVFDRARKRIGFAVSACHVHDEFRTAAVEGPFVTLDMEDCGYNIPQTDES
modifications: Amino acid sequence of human BACE with P33K mutation.
B3: E. Coli BACE: human BACE prepared as above in E. coli without the P33K mutation (protein)
chain: MASMTGGQQMGRGSMAGVLPAHGTQHGIRLPLRSGLGGAPLGLRLPRETDEEPEEPGRRGSFVEMVDNLRGKSGQGYYVEMTVGSPPQTLNILVDTGSSNFAVGAAPHPFLHRYYQRQLSSTYRDLRKGVYVPYTQGKWEGELGTDLVSIPHGPNVTVRANIAAITESDKFFINGSNWEGILGLAYAEIARPDDSLEPFFDSLVKQTHVPNLFSLQLCGAGFPLNQSEVLASVGGSMIIGGIDHSLYTGSLWYTPIRREWYYEVIIVRVEINGQDLKMDCKEYNYDKSIVDSGTTNLRLPKKVFEAAVKSIKAASSTEKFPDGFWLGEQLVCWQAGTTPWNIFPVISLYLMGEVTNQSFRITILPQQYLRPVEDVATSQDDCYKFAISQSSTGTVMGAVIMEGFYVVFDRARKRIGFAVSACHVHDEFRTAAVEGPFVTLDMEDCGYNIPQTDES
B4: CHO BACE: human BACE construct Asp2-2L-TM-His6 expressed in CHO cells; 50:50 mixture of two isoforms (control) (protein)
chain: TQHGIRLPLRSGLGGAPLGLRLPRETDEEPEEPGRRGSFVEMVDNLRGKSGQGYYVEMTVGSPPQTLNILVDTGSSNFAVGAAPHPFLHRYYQRQLSSTYRDLRKGVYVPYTQGKWEGELGTDLVSIPHGPNVTVRANIAAITESDKFFINGSNWEGILGLAYAEIARPDDSLEPFFDSLVKQTHVPNLFSLQLCGAGFPLNQSEVLASVGGSMIIGGIDHSLYTGSLWYTPIRREWYYEVIIVRVEINGQDLKMDCKEYNYDKSIVDSGTTNLRLPKKVFEAAVKSIKAASSTEKFPDGFWLGEQLVCWQAGTTPWNIFPVISLYLMGEVTNQSFRITILPQQYLRPVEDVATSQDDCYKFAISQSSTGTVMGAVIMEGFYVVFDRARKRIGFAVSACHVHDEFRTAAVEGPFVTLDMEDCGYNIPQTDESHHHHHH

Legend:
polypeptide substrate = settings: assayed with a polypeptide substrate; cited from earlier work
[1] = system: substrate S-1 (SEQ ID NO: 10); assay: BACE activity assay: cleavage of substrate S-1, HPLC tryptophan fluorescence peak area; type: biochemical; settings: for Activity Assays (Fluorescence Peak Area): 50 μl BACE sample containing 5–10 pmoles protein, 5 μl 1 mM substrate S-1, NaOAc pH 5.0, 1–2 hours at 37° C.
Procedure: The activity of P33K-BACE expressed in E. coli according the above Examples was compared to the activity of human BACE prepared as above without the P33K mutation, and to human BACE expressed in CHO cells.
To assay for BACE activity, the following activity assay conditions were utilized, unless specifically indicated otherwise: 20 μl 1 M sodium acetate (NaOAc), pH 5.0; 125 μl H2O; 50 μl BACE sample containing 5–10 pmoles protein; and 5 μl 1 mM substrate S-1 (SEQ ID NO: 10).
The 200 μl assay reaction was incubated for 1–2 hours at 37° C. Activity was expressed as fluorescence peak area generated by the liberation of a fluorescent (Tryptophan fluorescence) product upon cleavage of Substrate S-1 by recombinant BACE. The reaction was stopped with 100 μl of 4% TFA in H2O. In order to separate the cleavage products and thereby detect activity of recombinant BACE, 50 microliters of the reaction mixture was injected into a Hewlett Packard Model 1100 HPLC equipped with an Alltech Rocket™ column (7 mm i.d., ×53 mm length, C18, 3 μm) pre-equilibrated with 88% Reagent A (0.1% TFA in water), 12% Reagent B (0.1% TFA in acetonitrile). The flow rate over this column was 3 ml per minute.

| Molecule | k(cat)/K(m), fold less than β-secretase (polypeptide substrate) | Activity Assays (Fluorescence Peak Area) [1] | activity compared with BACE ([1]; result in words) |
| --- | --- | --- | --- |
| B1 | 2.3 fold | – | – |
| B2 | – | 38.41 and 26.50 and 32.84 | essentially the same activity of BACE |
| B3 | – | 31.03 and 45.80 and 31.86 | – |
| B4 | – | 83.32 and 85.20 and 78.07 | – |
